Assay results from paper PMC12041390, “Nanobody-mediated targeting of Plasmodium falciparum PfPIMMS43 can block malaria transmission in mosquitoes” (Communications Biology, 2025).

Tests used:
[1] = biological target: T1, recombinant Thioredoxin-His-tagged PfPIMMS43 (amino acids 26-481), full-length (FL) recombinant PfPIMMS43 (Plasmodium falciparum, 3D7 entry (NF54 …, UniProt C6KT40)); test: ELISA; dose response ELISA; MaxiSorp plates coated with 2 ug/mL recombinant PfPIMMS43 in PBS overnight, blocked with 4% skimmed milk; VHH from 1000 nM in serial 1:10 dilutions, 1 h at room temperature; detected with rabbit anti-VHH and donkey anti-rabbit HRP, OPD, 490 nm; conditions: both partners purified
T1 construct: PfPIMMS43 (PSOP25) of Plasmodium falciparum, a 505-amino acid protein; E. coli codon-optimised; the methods give 25-481; pET-32b vector; Results give 26-481, methods 25-481; also called TRX-His-PfPIMMS43; PSOP25; not shown: Thioredoxin (TRX), N-terminal, kept; His6, N-terminal, kept; His6, C-terminal, kept

[2] = biological target: T2, endogenous PfPIMMS43 produced by P. falciparum NF54 ookinetes (Plasmodium falciparum NF54 (entry 3D7, …, UniProt C6KT40)); test: far-Western, overlay or dot blot; reduced lysates of P. falciparum NF54-infected An. coluzzii midguts (18 h post blood meal) on 10% SDS-PAGE, blotted to PVDF, probed with nanobody, detected with anti-MYC antibody; non-infected blood-fed midguts as control; conditions: one partner purified
T2 construct: PfPIMMS43 (PSOP25) of Plasmodium falciparum NF54, a 505-amino acid protein with an N-terminal signal peptide and a C-terminal GPI anchor; seen as a ~60 kDa band; GPI-anchored surface protein of ookinetes; also called ~60 kDa PfPIMMS43 protein; PSOP25; source: endogenous, lysate of P. falciparum NF54-infected An. coluzzii midguts, 18 h post blood feeding
T2 sequence (C6KT40 25-505): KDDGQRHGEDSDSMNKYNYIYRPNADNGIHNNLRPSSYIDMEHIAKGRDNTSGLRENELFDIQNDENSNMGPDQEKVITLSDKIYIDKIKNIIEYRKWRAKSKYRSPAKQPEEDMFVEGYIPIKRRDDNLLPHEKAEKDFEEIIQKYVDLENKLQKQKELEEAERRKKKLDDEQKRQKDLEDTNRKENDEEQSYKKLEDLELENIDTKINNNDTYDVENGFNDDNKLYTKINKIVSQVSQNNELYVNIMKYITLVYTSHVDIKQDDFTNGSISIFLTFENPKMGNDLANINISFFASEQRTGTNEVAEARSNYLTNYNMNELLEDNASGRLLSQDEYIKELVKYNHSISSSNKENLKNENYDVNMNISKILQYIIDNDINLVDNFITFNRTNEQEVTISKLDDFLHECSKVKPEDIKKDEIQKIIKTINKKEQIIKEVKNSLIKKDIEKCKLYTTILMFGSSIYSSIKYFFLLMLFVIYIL

T1 sequence (C6KT40 26-481): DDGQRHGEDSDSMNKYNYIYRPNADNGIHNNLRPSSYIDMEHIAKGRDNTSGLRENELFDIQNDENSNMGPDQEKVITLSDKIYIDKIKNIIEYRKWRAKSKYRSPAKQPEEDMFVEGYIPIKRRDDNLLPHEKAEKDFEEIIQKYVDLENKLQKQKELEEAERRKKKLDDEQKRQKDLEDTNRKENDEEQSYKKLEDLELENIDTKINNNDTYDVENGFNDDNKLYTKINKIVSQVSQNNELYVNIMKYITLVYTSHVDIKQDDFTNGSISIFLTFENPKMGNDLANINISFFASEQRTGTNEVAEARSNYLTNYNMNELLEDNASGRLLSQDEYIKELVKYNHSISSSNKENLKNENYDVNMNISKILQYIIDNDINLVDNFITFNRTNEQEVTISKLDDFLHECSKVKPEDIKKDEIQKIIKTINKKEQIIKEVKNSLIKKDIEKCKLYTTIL

| Binder | binding affinity (dose response ELISA) [1] | binding result [2] |
| --- | --- | --- |
| PfPIMMS43 nanobody G9 (VHH, llama VHH; From an immune llama library (Eurogentec, pQ81 phagemid); CDR3 of 20 amino acids) VHH: EVQLVESGGGLVQAGGSLRLSCAASEGTFSDYGMGWFRQAPGKEREFVASISWSGGRTGYRSSVKGRFTISRDNAKNTVYLQMNSLKPEDTAVYYCGAMSKYYRGDWSSRVTNYDDWGQGTQVTVSS | 3 nM |  |
| PfPIMMS43 nanobody E2 (VHH, llama VHH; From an immune llama library (Eurogentec, pQ81 phagemid); CDR2 of 7 amino acids) VHH: EVQLVESGGGLVQAGGSLRLSCAASGLTFNGDSMGWFRQAPGKEREFVAAIRWNEVAYYADFVKGRFTISRDNAKNTVTLQMNSLKPEDTAVYYCGAGVRAYSYTTRLTSASEYTYWGQGTQVTVSS | 8 nM |  |
| PfPIMMS43 nanobody C12 (VHH, llama VHH; From an immune llama library (Eurogentec, pQ81 phagemid)) VHH: EVQLVESGGGLVQAGGSLRLSCVDSGRTLSSYTMGWFRQAPGKEREFVAAVHYTGRRTYYADSVKGRFTISRDNDKNTVLLQMNSLKPEDTAVYYCAATEPPHSDYSTRLYNYHYWGQGTQVTVSS | 6 nM | binds |
| PfPIMMS43 nanobody H6 (VHH, llama VHH; From an immune llama library (Eurogentec, pQ81 phagemid)) VHH: EVQLVESGGALVQAGNSLRLSCAASGRTFRSYVMGWFRQAPEKEREFVARIGWSAGSTYYTDSVKGRFTISRDDAKNTVYLQMNSLKPEDTAVYYCAAGRGYSDYDPSVGYGYWGQGTQVTVSS | > 50 nM |  |
| PfPIMMS43 nanobody E5 (VHH, llama VHH; From an immune llama library (Eurogentec, pQ81 phagemid); CDR2 of 7 and CDR3 of 8 amino acids) VHH: EVQLVESGGGLVQAGGSLRLSCAASGIHFNFKAMAWYRQAPGKQRELVAAIAPDDDTNYADSVKGRFTISRDNAKNTVYLQMNSLKPEDTAVYYCNTRIRIDYWGQGTQVTVSS | 5 nM |  |
| PfPIMMS43 nanobody A3 (VHH, llama VHH; From an immune llama library (Eurogentec, pQ81 phagemid); CDR2 of 7 amino acids) VHH: EVQLVESGGGLVQPGGSLRLSCAASGSIFDKNGMGWFRQPPGRQRELVASITTDGNKHYGDDAKGRFTISRDIAKKTAYLQMNSLKPEDTAVYYCATTRGNYYSKSPPPIYDYYYWGQGTQVTVSS | > 50 nM |  |
| PfPIMMS43 nanobody B11 (VHH, llama VHH; From an immune llama library (Eurogentec, pQ81 phagemid)) VHH: EVQLVESGGGLVRAGDSLRLSCAASGTPLSSYTMGWFRQAPGKEREFVAASCWRGGSAYDADSIEGRFTISRDNAKNTVYLQMNSLKPEDTAVYYCAAVFAYICSSYGNRSPSRYGYWGQGTQVTVSS | > 50 nM |  |
| PfPIMMS43 nanobody E1 (VHH, llama VHH; From an immune llama library (Eurogentec, pQ81 phagemid)) VHH: EVQLVESGGGLVQAGDSLRLSCAASDSTFSIYVMGWFRQAPGKEREFVAAITGSGGNTNYADSVKGRFTVSRDNAKHTVYLQMNSLKPEDAAVYYCAAGGSYSRSSLNYPYWGQGTQVTVSS | > 50 nM |  |
| PfPIMMS43 nanobody A5 (VHH, llama VHH; From an immune llama library (Eurogentec, pQ81 phagemid)) VHH: EVQLVESGGGLVQAGVSLRLSCAASGRSLSNYAMGWFRQAPGKEREFVASITGSGSSTYYLNSVKGRFIISKDNAKNTVYLQMNSLKPEDTAVYYCAADSTGVARYTNRYDYWGQGTRVTVSS | > 50 nM |  |
